Some results are limits rather than exact numbers.

The target in assay [1] is T1, CXCR4 and CD4 co-expressed on cells (MOLM-13, THP-1, MT-4, PBMC; Jurkat CD4 low) (human, UniProt P61073 1-352; P01730 26-458). The experiment in a line: cell-based or functional assay.
For assay [2], the target named is T1, CXCR4 and CD4 co-expressed on cells …. Put plainly: flow cytometry on THP-1 cells (CD4 and CXCR4), detection via tag.
The target is the same in assay [3]. Put plainly: FACS, MOLM-13 cells (CXCR4+/CD4+).
The target is the same in assay [4]. Put plainly: cell-based or functional assay. This is another data set of the same source.
Assay [5] shares this target. The experiment in a line: cell-based or functional assay. This is another data set of the same source.
For assay [6] the target is unchanged. The experiment in a line: FACS, Jurkat E6-1 cells (CXCR4+/CD4 low).
Assay [7] deals with T2, human CXCR4 (on cells, viral lipoparticles or membrane extracts) (human, UniProt P61073 1-352). The experiment in a line: cell-based or functional assay.
T2 sequence (P61073 whole entry, the tested form may be a part): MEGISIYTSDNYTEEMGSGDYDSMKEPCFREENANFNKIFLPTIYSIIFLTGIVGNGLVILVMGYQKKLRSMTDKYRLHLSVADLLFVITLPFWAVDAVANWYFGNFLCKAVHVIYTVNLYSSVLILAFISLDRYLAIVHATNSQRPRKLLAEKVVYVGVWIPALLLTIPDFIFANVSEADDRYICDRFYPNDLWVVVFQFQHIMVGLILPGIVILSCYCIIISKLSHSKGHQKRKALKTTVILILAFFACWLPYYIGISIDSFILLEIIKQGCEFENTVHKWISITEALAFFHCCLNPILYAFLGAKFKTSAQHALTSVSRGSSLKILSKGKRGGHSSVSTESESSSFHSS
Assay [8] concerns the target T3, recombinant IL-3Rα ectodomain (human, UniProt P26951 19-305).
T3 construct: extracellular domain; also called recombinant IL-3Ra; biotinylated-IL-3Rα ectodomain
T3 sequence (looked up): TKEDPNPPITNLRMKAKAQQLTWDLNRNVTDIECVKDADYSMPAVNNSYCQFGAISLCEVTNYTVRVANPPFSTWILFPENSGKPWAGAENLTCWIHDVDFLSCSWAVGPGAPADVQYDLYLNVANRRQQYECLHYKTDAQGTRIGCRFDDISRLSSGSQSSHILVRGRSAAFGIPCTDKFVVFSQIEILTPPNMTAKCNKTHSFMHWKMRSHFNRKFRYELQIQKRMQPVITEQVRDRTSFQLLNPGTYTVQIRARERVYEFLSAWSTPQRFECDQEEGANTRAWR
Put plainly: ELISA on recombinant IL-3Ra ectodomain (panel 'IL-3Ra ELISA', lower left).

Assay [9] has as its target T4, human IL-3Rα (CD123), cell-expressed (human, UniProt P26951 19-378).
T4 construct: whole, on cells; also called IL-3Ra; Hek-IL-3Rα
Put plainly: FACS, HEK293T-IL-3Rα cells.

The target in assay [10] is T3, recombinant IL-3Rα ectodomain. The experiment in a line: SPR ProteOn, immobilised IL-3Rα ectodomain.
Assay [11] concerns the target T4, human IL-3Rα (CD123), cell-expressed. Put plainly: FACS, MOLM-13 cells.
Assay [12] addresses T2, human CXCR4 (on cells, viral …). The experiment in a line: flow cytometry at one concentration on Jurkat E6-1 cells (CXCR4+/CD123-), anti-FLAG detection.
In assay [13] the target is T4, human IL-3Rα (CD123), cell-expressed. The experiment in a line: flow cytometry on Molm-13 cells; EC50(M) printed in the legend box beside the curves.
The target of assay [14] is T3, recombinant IL-3Rα ectodomain. The experiment in a line: competition ELISA, coated mAb 7G3 + biotinylated IL-3Rα ectodomain.
Assay [15] deals with T4, human IL-3Rα (CD123), cell-expressed. Put plainly: FACS, THP-1 cells.
In assay [16] the target is T3, recombinant IL-3Rα ectodomain. Put plainly: ELISA on recombinant IL-3Ra ectodomain (lower right panel).
Assay [17] has as its target T2, human CXCR4 (on cells, viral …). Put plainly: ELISA on coated CXCR4 viral lipoparticles (both upper panels).
For assay [18] the target is unchanged. Put plainly: cell-based or functional assay. This is another data set of the same source.
Assay [19] has as its target T5, CXCR4 and IL-3Rα (CD123) co-expressed on MOLM-13 / THP-1 cells (human, UniProt P61073 1-352; P26951 19-378).
T5 construct: whole, on cells; two separate membrane proteins on one cell, not a complex; target of bispecifics on double-positive cells; also called CXCR4+/CD123+ cells
The experiment in a line: flow cytometry on THP-1 cells (CXCR4 and IL-3Ra).

Assay [20] concerns the target T5, CXCR4 and IL-3Rα (CD123) co-expressed …. The experiment in a line: flow cytometry on MOLM-13 cells (IL-3Ra higher than CXCR4).
For assay [21], the target named is T2, human CXCR4 (on cells, viral …). Put plainly: ELISA on coated CXCR4 viral lipoparticles (panel 'CXCR4 VLP Binding', upper left).
Assay [22] addresses T5, CXCR4 and IL-3Rα (CD123) co-expressed …. The experiment in a line: flow cytometry at one concentration, 4.6 nM, on MOLM-13 cells (CXCR4+/CD123+), anti-FLAG detection.
The target in assay [23] is T2, human CXCR4 (on cells, viral …). Put plainly: ELISA on coated hCXCR4 lipoparticles against null lipoparticles at 100, 10, 1 and 0 nM, anti-c-myc detection.

T1 sequence (P61073 whole entry, chain 1 of 2, other chains not shown): as the sequence (P61073 whole entry, the tested form may be a part) above
T5 sequence (P61073 whole entry, one chain of several): as the sequence (P61073 whole entry, the tested form may be a part) above

B1: 03F11-35GS-281F12 (bispecific antibody)
chain: EVQLVESGGGSVQPGGSLTLSCGTSGRTFNVMGWFRQAPGKEREFVAAVRWSSTGIYYTQYADSVKSRFTISRDNAKNTVYLEMNSLKPEDTAVYYCAADTYNSNPARWDGYDFRGQGTQVTVSSGGGGSGGGGSGGGGSGGGGSGGGGSGGGGSGGGGSEVQLVESGGGLVQAGDSLRLSCAASGRAFSRYAMGWFRQAPGKEREFVAAIGWGPSKTNYADSVKGRFTISRDNAKNTVYLQMNTLKPEDTAVYSCAAKFVNTDSTWSRSEMYTYWGQGTQVTVSS
notes: also called CD4#8-35GS-CXCR4#2; CD4#8-CXCR4#2
In the case of B1, in [1], the “IC50, HIV-1 NL4.3 wt, MT-4” value is 6 nM; the “IC50, NL4.3 2G12 res., MT-4” value was 3 nM; the “IC50, NL4.3 AMD-3100 res., MT-4” value was 14 nM; the “IC50, NL4.3 CD4#8 res., MT-4” value was 95.7 nM. Besides, in [1], the “IC50, NL4.3 CXCL-12res., MT-4” value is 70 nM and the “IC50, NL4.3 CXCR4#2 res, MT-4” value was greater than 310 nM. Also, the “EC50 (read off the curve)” value in [2] is roughly 1 nM. The same molecule came in with an EC50 in assay [3] of 0.7 nM. Further, in assay [4], the “IC50, HIV-1 BaL (R5), PBMC” value is 35.9 nM; the “IC50, HIV-1 NL4.3 (X4), MT-4” value was determined as 11.7 nM; the “IC50, HIV-1 NL4.3 (X4), PBMC” value is 23.7 nM; the “IC50, HIV-1 NL4.3 (X4), U87” value was greater than 3330 nM. Moreover, in assay [5], the “IC50, HIV-1 HE, MT-4” value turned out to be 2 nM; the “IC50, HIV-1 NL4.3, MT-4” value is 6 nM; the “IC50, HIV-2 ROD, MT-4” value turned out to be 8.75 nM. Besides, in [6], a half-maximal effect (EC50) was put at 1.1 nM. Further, in [7], the “Fold increase vs CXCR4#2, Jurkat E6-1” value came to 0.2 fold; the “Fold increase vs CXCR4#2, MOLM-13” value is 67 fold; the “IC50, SDF-1 chemotaxis, Jurkat E6-1” value came to 460 nM; the “IC50, SDF-1 chemotaxis, MOLM-13” value worked out at 1.29 nM.

B2: 55A01 (VHH)
VHH: EVQLVESGGGSVQAGGSLRLSCTTSGRALNMYVMGWFRQAPGNEREFVAATSSSGGSTSYPDSVKGRFTISRDNAKNTVYLQMNSLKPEDTAAYRCAASPYVSTPTMNILEEYRYWGLGTQVTVSS
notes: also called CD123#2; A0110055A01
Regarding B2, the “EC50 (read off the curve)” value in assay [8] was roughly 1 nM. The EC50 in assay [9] turned out to be 1.1 nM; in assay [11], 8.2 nM; in assay [13], 13 nM; in assay [15] it was 11 nM. In assay [10], the Kd was determined as 17.1 nM. Also, the koff in [10] was found to be 0.0014 s⁻¹. In addition, the kon in assay [10] is 84000 M⁻¹ s⁻¹. In assay [12], the binding result is “no binding (tested: 4.6 nM)”. In addition, the IC50 in assay [14] is 40 nM.

B3: 57A07 (VHH)
VHH: EVQLVESGGGLVQAGGSLRLSCAASGSIFSGNVMGWYRRQAPGKEREWVAAIASGGSIYYRDSVKGRFTISRDNAKNTVYLQMNSLKPEDTAVYYCNSHPPTLPYWGLGTQVTVSS
notes: also called CD123#1; A0110057A07
In the case of B3, the “EC50 (read off the curve)” value in assay [16] is roughly 0.5 nM. In addition, the EC50 in assay [9] came out at 0.24 nM; in assay [11], 0.66 nM; in [13], 0.67 nM; in assay [15], 1.3 nM. The dissociation constant Kd in assay [10] came to 0.783 nM. Further, the koff in [10] was found to be 0.00081 s⁻¹. For the same molecule, in assay [10], the on-rate constant (kon) is 1e+06 M⁻¹ s⁻¹. The half-inhibitory concentration (IC50) in [14] came to 1.2 nM. In addition, the binding result in assay [17] was “no binding (tested: about 1E-5 M)”.

B4: 281F12-35GS-55A01 (bispecific antibody)
chain: EVQLVESGGGLVQAGDSLRLSCAASGRAFSRYAMGWFRQAPGKEREFVAAIGWGPSKTNYADSVKGRFTISRDNAKNTVYLQMNTLKPEDTAVYSCAAKFVNTDSTWSRSEMYTYWGQGTLVTVSSGGGGSGGGGSGGGGSGGGGSGGGGSGGGGSGGGGSEVQLVESGGGSVQAGGSLRLSCTTSGRALNMYVMGWFRQAPGNEREFVAATSSSGGSTSYPDSVKGRFTISRDNAKNTVYLQMNSLKPEDTAAYRCAASPYVSTPTMNILEEYRYWGQGTLVTVSS
notes: also called CXCR4#2-CD123#2; 281F12-55A01
Turning to B4, in [18], the “Fold inc. vs CXCR4#2, Jurkat E6-1” value was found to be 1.13 fold; the “Fold inc. vs CXCR4#2, MOLM-13” value worked out at 10.9 fold; the “IC50, CXCL-12 chemotaxis, Jurkat E6-1” value stood at 86 nM; the “IC50, CXCL-12 chemotaxis, MOLM-13” value was 7.85 nM. Further, the “EC50 (read off the curve)” value in assay [8] was roughly 1 nM. For the same molecule, the “EC50 (read off the curve)” value in assay [19] is roughly 10 nM. Further, the 50% effective concentration (EC50 (read off the curve)) in assay [20] was roughly 10 nM.

B5: 57A07-35GS-281F12 (bispecific antibody)
chain: EVQLVESGGGLVQAGGSLRLSCAASGSIFSGNVMGWYRRQAPGKEREWVAAIASGGSIYYRDSVKGRFTISRDNAKNTVYLQMNSLKPEDTAVYYCNSHPPTLPYWGQGTLVTVSSGGGGSGGGGSGGGGSGGGGSGGGGSGGGGSGGGGSEVQLVESGGGLVQAGDSLRLSCAASGRAFSRYAMGWFRQAPGKEREFVAAIGWGPSKTNYADSVKGRFTISRDNAKNTVYLQMNTLKPEDTAVYSCAAKFVNTDSTWSRSEMYTYWGQGTLVTVSS
notes: FLAG3-His6 also made; also called CD123#1-CXCR4#2; 57A07-281F12
In the case of B5, the 50% effective concentration (EC50 (read off the curve)) in assay [16] was roughly 0.5 nM. Further, the binding result in assay [21] and in assay [22] was “binds” each time.

B6: 281F12-9GS-03F11 (bispecific antibody)
chain: EVQLVESGGGLVQAGDSLRLSCAASGRAFSRYAMGWFRQAPGKEREFVAAIGWGPSKTNYADSVKGRFTISRDNAKNTVYLQMNTLKPEDTAVYSCAAKFVNTDSTWSRSEMYTYWGQGTQVTVSSGGGSGGGGSEVQLVESGGGSVQPGGSLTLSCGTSGRTFNVMGWFRQAPGKEREFVAAVRWSSTGIYYTQYADSVKSRFTISRDNAKNTVYLEMNSLKPEDTAVYYCAADTYNSNPARWDGYDFRGQGTQVTVSS
notes: also called CXCR4#2-9GS-CD4#8
Consider B6, for which, in assay [4], the “IC50, HIV-1 NL4.3 (X4), MT-4” value was 0.2 nM; the “IC50, HIV-1 NL4.3 (X4), PBMC” value was 0.03 nM; the “IC50, HIV-1 NL4.3 (X4), U87” value is 0.53 nM. In addition, the binding result in [23] is given as “binds”.

For the origin of these results see US20160251440A1 (Ablynx, published 2016).
